Results: PMC6780846, “Identification and Characterization of a Novel Protein ASP-3 Purified from Arca subcrenata and Its Antitumor Mechanism” (Marine Drugs, 2019)

Molecular target: T1, vascular endothelial growth factor receptor 2 (UniProt P35968 20-764)
T1 construct: VEGFR2 (vascular endothelial growth factor receptor 2); probably a bought recombinant protein (surmise); also called VEGFR2; VEGFR-2
Experiment: SPR; Biacore S200; ASP-3 immobilised on a CM5 chip (NHS/EDC activation); VEGFR2 at 100, 50, 25, 12.5, 6.25 and 3.125 nM flowed over for 180 s at 10 μL/min; running buffer HBS-EP+; reference channel subtracted
Details: both partners purified

T1 sequence (P35968 20-764): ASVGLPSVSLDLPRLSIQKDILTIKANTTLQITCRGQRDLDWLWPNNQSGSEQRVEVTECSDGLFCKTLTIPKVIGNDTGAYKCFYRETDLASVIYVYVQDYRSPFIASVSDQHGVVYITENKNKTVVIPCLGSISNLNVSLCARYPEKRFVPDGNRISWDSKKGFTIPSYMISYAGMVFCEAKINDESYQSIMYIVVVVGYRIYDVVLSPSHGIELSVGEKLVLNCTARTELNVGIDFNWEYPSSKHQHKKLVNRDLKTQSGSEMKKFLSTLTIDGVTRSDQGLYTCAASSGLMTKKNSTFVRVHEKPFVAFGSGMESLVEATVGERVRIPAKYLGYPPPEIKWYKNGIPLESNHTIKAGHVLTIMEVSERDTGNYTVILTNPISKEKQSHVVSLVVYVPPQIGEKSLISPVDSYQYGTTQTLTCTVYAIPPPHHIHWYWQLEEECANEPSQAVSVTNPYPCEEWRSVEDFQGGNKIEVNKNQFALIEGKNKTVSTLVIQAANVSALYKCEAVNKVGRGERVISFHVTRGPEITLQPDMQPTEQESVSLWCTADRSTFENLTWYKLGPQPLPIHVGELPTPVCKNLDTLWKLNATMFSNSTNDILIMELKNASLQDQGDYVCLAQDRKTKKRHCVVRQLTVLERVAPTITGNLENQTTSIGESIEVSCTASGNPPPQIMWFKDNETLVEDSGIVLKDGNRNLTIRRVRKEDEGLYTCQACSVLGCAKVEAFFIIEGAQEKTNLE

B1: ASP-3 (natural protein, Arca subcrenata)
chain: MDYLTSKWKLWFHSLDVNHDGKISFEDVEESRNKFTDLHKLLGDKASGVKVDMESWWNTYIFKASGGGELSEEMFIKSNTDRYNKDKAAFLNDIQKCFNMIFDVIDTNKDRSIELNEFIYAFKAFGHENEGLVTKAFELLEPKEGLVPLRDIVNAWVSFVTSTDQSKPDAIKQAFDAGF
notes: ASP-3, Arca subcrenata Lischke, 179 amino acids, 20.6 kDa; Native protein isolated from the animal; also called Arca subcrenata protein; cds.c115914_g1_i1
Question: B1 was tested. Which Kd did it give?
Answer: 39.9 nM
